The experiment has as its target AF-tubulin (porcine) (UniProt P02550).

In publication PMC11951922 one finds Pearson's correlation coefficient (PCC) of co-localisation of TMR-microtubule and AF-tubulin fluorescence in CLSM images, 100 uM peptide, doublet method (no peptide: 0.07) data, which are given here for 3 molecules.

Sequence of UniProt P02550 (P02550 whole entry, chain 1 of 2): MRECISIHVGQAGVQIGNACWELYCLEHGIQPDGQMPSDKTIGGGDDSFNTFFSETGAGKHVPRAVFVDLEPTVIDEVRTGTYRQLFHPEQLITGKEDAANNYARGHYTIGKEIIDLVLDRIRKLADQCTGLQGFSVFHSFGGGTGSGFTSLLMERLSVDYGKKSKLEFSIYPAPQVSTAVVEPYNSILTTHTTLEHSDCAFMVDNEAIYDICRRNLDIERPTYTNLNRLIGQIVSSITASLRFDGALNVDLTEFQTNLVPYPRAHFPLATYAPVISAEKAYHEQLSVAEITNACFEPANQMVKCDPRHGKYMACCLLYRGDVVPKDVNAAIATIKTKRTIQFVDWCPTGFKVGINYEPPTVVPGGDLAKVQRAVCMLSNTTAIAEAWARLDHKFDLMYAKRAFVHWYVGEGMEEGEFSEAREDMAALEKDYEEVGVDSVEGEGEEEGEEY
Sequence of UniProt P02550 (Q767L7 whole entry, chain 2 of 2, further chain): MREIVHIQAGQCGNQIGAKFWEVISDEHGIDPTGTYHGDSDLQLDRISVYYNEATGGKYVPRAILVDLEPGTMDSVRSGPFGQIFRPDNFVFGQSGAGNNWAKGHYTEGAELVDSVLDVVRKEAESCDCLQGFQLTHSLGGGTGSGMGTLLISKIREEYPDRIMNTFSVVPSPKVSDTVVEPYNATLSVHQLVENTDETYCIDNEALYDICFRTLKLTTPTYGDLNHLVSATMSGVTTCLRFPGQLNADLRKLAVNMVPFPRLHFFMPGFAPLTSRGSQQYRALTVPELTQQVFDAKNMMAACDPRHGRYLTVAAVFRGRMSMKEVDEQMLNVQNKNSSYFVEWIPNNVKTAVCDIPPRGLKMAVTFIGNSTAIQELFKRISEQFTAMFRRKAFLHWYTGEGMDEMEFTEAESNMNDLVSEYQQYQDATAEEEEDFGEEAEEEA

The molecule KAKAKAKAKAKAKAGGGSGGGSGGGSGGGKKHVPGGGSVQIVYKPVDL [KA7–(GGGS)3–TP] gave a Pearson's correlation coefficient (PCC) of co-localisation of TMR-microtubule and AF-tubulin fluorescence in CLSM images, 100 uM peptide, doublet method (no peptide: 0.07) of 0.7.
The same measure for KAKAKAKAKAKAKAEAAAKEAAAKGGGKKHVPGGGSVQIVYKPVDL [KA7–(EAAAK)2–TP]: 0.72.
KAKAKAKAKAKAKAGGGSGGGKKHVPGGGSVQIVYKPVDL [KA7–GGGS–TP] returned a Pearson's correlation coefficient (PCC) of co-localisation of TMR-microtubule and AF-tubulin fluorescence in CLSM images, 100 uM peptide, doublet method (no peptide: 0.07) of 0.61.
